Substitutions are numbered along the chain they refer to.
B1: GCH057-G1dh/none-Hi-Kn010G3/L0215-k0 (antibody, V domains shown)
VH: QVQLVQSGAEVKKPGASVTVSCKASGYTFTDYEMHWIRQPPGEGLEWIGAIDGETPDTAYSEKFEGRVTLTADKSTSTAYMELSSLTSEDTAVYYCTRFYSYTYWGQGTLVTVSS
VL: DIVMTQSPLSLPVTPGEPASISCRSSQPPVHSNRNTYIHWYQQKPGQAPRLLIYKVSNRFSGVPDRFSGSGSGTDFTLKISRVEAEDVGVYYCGQGTQVPYTFGQGTKLEIK
notes: one-arm
B2: H0610-G1dh/none-Hi-Kn010G3/L0009-k0 (antibody, V domains shown)
VH: B1 VH with T19K, E43Q, E54K, E62Q, E65K
VL: B1 VL with S26P, P28S, P29L, I38L
notes: one-arm
B3: H0610-G1dh/none-Hi-Kn010G3/L0002-k0 (antibody, V domains shown)
VH: B1 VH with T19K, E43Q, E54K, E62Q, E65K
VL: B1 VL with S25A, P28S, P29L, I38L
notes: one-arm
B4: GCH065-G1dh/none-Hi-Kn010G3/L0262-k0 (antibody, V domains shown)
VH: B1 VH with E54P, E65K
VL: B1 VL with I38L, G94A
notes: one-arm
B5: GCH094-G1dh/none-Hi-Kn010G3/L0272-k0 (antibody, V domains shown)
VH: B1 VH with I37V, P40A, I48M, E65K
VL: B1 VL with P29L, N35Q, I38L
notes: one-arm
B6: H0610-G1dh/none-Hi-Kn010G3/L0006-k0 (antibody, V domains shown)
VH: B1 VH with T19K, E43Q, E54K, E62Q, E65K
VL: B1 VL with S25P, P28S, P29L, I38L
notes: one-arm
B7: H0610-G1dh/none-Hi-Kn010G3/L0016-k0 (antibody, V domains shown)
VH: B1 VH with T19K, E43Q, E54K, E62Q, E65K
VL: B1 VL with P28S, P29V, I38L
notes: one-arm
B8: H0610-G1dh/none-Hi-Kn010G3/L0065-k0 (antibody, V domains shown)
VH: B1 VH with T19K, E43Q, E54K, E62Q, E65K
VL: B1 VL with P28S, P29L, N35G, I38L
notes: one-arm
B9: H0610-G1dh/none-Hi-Kn010G3/L0066-k0 (antibody, V domains shown)
VH: B1 VH with T19K, E43Q, E54K, E62Q, E65K
VL: B1 VL with P28S, P29L, N35H, I38L
notes: one-arm
B10: H0610-G1dh/none-Hi-Kn010G3/L0012-k0 (antibody, V domains shown)
VH: B1 VH with T19K, E43Q, E54K, E62Q, E65K
VL: B1 VL with P28S, P29F, I38L
notes: one-arm
B11: H0610-G1dh/none-Hi-Kn010G3/L0013-k0 (antibody, V domains shown)
VH: B1 VH with T19K, E43Q, E54K, E62Q, E65K
VL: B1 VL with P28S, P29I, I38L
notes: one-arm
B12: H0610-G1dh/none-Hi-Kn010G3/L0007-k0 (antibody, V domains shown)
VH: B1 VH with T19K, E43Q, E54K, E62Q, E65K
VL: B1 VL with S25T, P28S, P29L, I38L
notes: one-arm
B13: H0610-G1dh/none-Hi-Kn010G3/L0062-k0 (antibody, V domains shown)
VH: B1 VH with T19K, E43Q, E54K, E62Q, E65K
VL: B1 VL with P28S, P29L, N35D, I38L
notes: one-arm
B14: H0610-G1dh/none-Hi-Kn010G3/L0003-k0 (antibody, V domains shown)
VH: B1 VH with T19K, E43Q, E54K, E62Q, E65K
VL: B1 VL with S25I, P28S, P29L, I38L
notes: one-arm
B15: H0610-G1dh/none-Hi-Kn010G3/L0014-k0 (antibody, V domains shown)
VH: B1 VH with T19K, E43Q, E54K, E62Q, E65K
VL: B1 VL with P28S, P29M, I38L
notes: one-arm
B16: H0610-G1dh/none-Hi-Kn010G3/L0044-k0 (antibody, V domains shown)
VH: B1 VH with T19K, E43Q, E54K, E62Q, E65K
VL: B1 VL with P28S, P29L, S32P, I38L
notes: one-arm
B17: H0610-G1dh/none-Hi-Kn010G3/L0045-k0 (antibody, V domains shown)
VH: B1 VH with T19K, E43Q, E54K, E62Q, E65K
VL: B1 VL with P28S, P29L, S32Q, I38L
notes: one-arm
B18: GCH094-G1dh/none-Hi-Kn010G3/L0270-k0 (antibody, V domains shown)
VH: B1 VH with I37V, P40A, I48M, E65K
VL: B1 VL with P28S, P29L, N35Q, I38L
notes: one-arm
B19: H0610-G1dh/none-Hi-Kn010G3/L0047-k0 (antibody, V domains shown)
VH: B1 VH with T19K, E43Q, E54K, E62Q, E65K
VL: B1 VL with P28S, P29L, S32W, I38L
notes: one-arm
B20: GCH094-G1dh/none-Hi-Kn010G3/L0246-k0 (antibody, V domains shown)
VH: B1 VH with I37V, P40A, I48M, E65K
VL: B1 VL with P28S, H39Q, G94S
notes: one-arm
B21: H0610-G1dh/none-Hi-Kn010G3/L0042-k0 (antibody, V domains shown)
VH: B1 VH with T19K, E43Q, E54K, E62Q, E65K
VL: B1 VL with P28S, P29L, S32M, I38L
notes: one-arm
B22: H0610-G1dh/none-Hi-Kn010G3/L0064-k0 (antibody, V domains shown)
VH: B1 VH with T19K, E43Q, E54K, E62Q, E65K
VL: B1 VL with P28S, P29L, N35F, I38L
notes: one-arm
B23: H0610-G1dh/none-Hi-Kn010G3/L0038-k0 (antibody, V domains shown)
VH: B1 VH with T19K, E43Q, E54K, E62Q, E65K
VL: B1 VL with P28S, P29L, S32F, I38L
notes: one-arm
B24: GCH094-G1dh/none-Hi-Kn010G3/L0271-k0 (antibody, V domains shown)
VH: B1 VH with I37V, P40A, I48M, E65K
VL: B1 VL with N35Q, I38L
notes: one-arm
B25: H0610-G1dh/none-Hi-Kn010G3/L0046-k0 (antibody, V domains shown)
VH: B1 VH with T19K, E43Q, E54K, E62Q, E65K
VL: B1 VL with P28S, P29L, S32V, I38L
notes: one-arm
B26: H0610-G1dh/none-Hi-Kn010G3/L0008-k0 (antibody, V domains shown)
VH: B1 VH with T19K, E43Q, E54K, E62Q, E65K
VL: B1 VL with S25V, P28S, P29L, I38L
notes: one-arm
B27: H0610-G1dh/none-Hi-Kn010G3/L0039-k0 (antibody, V domains shown)
VH: B1 VH with T19K, E43Q, E54K, E62Q, E65K
VL: B1 VL with P28S, P29L, S32H, I38L
notes: one-arm
B28: H0610-G1dh/none-Hi-Kn010G3/L0041-k0 (antibody, V domains shown)
VH: B1 VH with T19K, E43Q, E54K, E62Q, E65K
VL: B1 VL with P28S, P29L, S32L, I38L
notes: one-arm
B29: H0610-G1dh/none-Hi-Kn010G3/L0032-k0 (antibody, V domains shown)
VH: B1 VH with T19K, E43Q, E54K, E62Q, E65K
VL: B1 VL with P28S, P29L, H31R, I38L
notes: one-arm
B30: H0610-G1dh/none-Hi-Kn010G3/L0063-k0 (antibody, V domains shown)
VH: B1 VH with T19K, E43Q, E54K, E62Q, E65K
VL: B1 VL with P28S, P29L, N35E, I38L
notes: one-arm
B31: GCH060-G1dh/none-Hi-Kn010G3/L0200-k0 (antibody, V domains shown)
VH: B1 VH with T30E, E62Q, S88E
VL: B1 VL with S25P, P28S, I38L
notes: one-arm
B32: GCH065-G1dh/none-Hi-Kn010G3/L0272-k0 (antibody, V domains shown)
VH: B1 VH with E54P, E65K
VL: B1 VL with P29L, N35Q, I38L
notes: one-arm
B33: H0610-G1dh/none-Hi-Kn010G3/L0069-k0 (antibody, V domains shown)
VH: B1 VH with T19K, E43Q, E54K, E62Q, E65K
VL: B1 VL with P28S, P29L, N35M, I38L
notes: one-arm
B34: H0610-G1dh/none-Hi-Kn010G3/L0075-k0 (antibody, V domains shown)
VH: B1 VH with T19K, E43Q, E54K, E62Q, E65K
VL: B1 VL with P28S, P29L, N35W, I38L
notes: one-arm
B35: H0610-G1dh/none-Hi-Kn010G3/L0043-k0 (antibody, V domains shown)
VH: B1 VH with T19K, E43Q, E54K, E62Q, E65K
VL: B1 VL with P28S, P29L, S32N, I38L
notes: one-arm

Target: T1, human GPC3 (human, UniProt P51654 25-563)
T1 construct: range 25-563; soluble analyte; also called soluble human GPC3; glypican 3
Experiment: SPR

T1 sequence (P51654 25-563 limits assumed): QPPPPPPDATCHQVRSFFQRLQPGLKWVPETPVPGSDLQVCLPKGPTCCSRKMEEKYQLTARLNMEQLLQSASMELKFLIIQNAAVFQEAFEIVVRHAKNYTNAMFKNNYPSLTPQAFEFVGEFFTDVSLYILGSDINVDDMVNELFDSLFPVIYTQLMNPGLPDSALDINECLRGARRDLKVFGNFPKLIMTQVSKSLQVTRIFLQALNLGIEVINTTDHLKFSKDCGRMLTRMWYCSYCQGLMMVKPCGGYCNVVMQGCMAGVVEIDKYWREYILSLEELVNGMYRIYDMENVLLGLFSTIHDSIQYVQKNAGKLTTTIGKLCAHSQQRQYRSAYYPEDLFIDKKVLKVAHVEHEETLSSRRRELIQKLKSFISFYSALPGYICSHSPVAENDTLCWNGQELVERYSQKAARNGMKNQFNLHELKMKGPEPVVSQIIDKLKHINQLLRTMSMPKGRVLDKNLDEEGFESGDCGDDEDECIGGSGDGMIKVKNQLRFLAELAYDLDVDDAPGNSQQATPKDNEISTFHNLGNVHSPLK

Row | Kd [nM] | Binder
1 | 1.83 | B1
2 | 2.99 | B2
3 | 4.43 | B3
4 | 0.0118 | B4
5 | 2.1 | B5
6 | 3.04 | B6
7 | 4.44 | B7
8 | 4.79 | B8
9 | 4.2 | B9
10 | 1.55 | B10
11 | 3.35 | B11
12 | 4.39 | B12
13 | 5.28 | B13
14 | 4.01 | B14
15 | 1.82 | B15
16 | 4.57 | B16
17 | 4.66 | B17
18 | 3.6 | B18

Row | Kd [nM] | Binder
19 | 2.23 | B19
20 | 0.00412 | B20
21 | 4.27 | B21
22 | 3.37 | B22
23 | 2.75 | B23
24 | 0.692 | B24
25 | 5.45 | B25
26 | 3.3 | B26
27 | 3.41 | B27
28 | 4.85 | B28
29 | 3.72 | B29
30 | 6.03 | B30
31 | 1.34 | B31
32 | 0.393 | B32
33 | 5.32 | B33
34 | 2.85 | B34
35 | 5.14 | B35
